Assay: soluble on expression in E. coli; label from the status in PepcDB or PDB records

Sequence | soluble on expression in E. coli
MGSDKIHHHHHHMEHLPEQYRQLFPTLQTHTMLASCSQSALAEPVSRAIQDYYDSLLYKGTNWKEAIEKTEFARNEFAKLIGAEPDEVAIVPSVSDALVSVASSLTAFGKKHVVYTDMDFPAVPHVWQAHSDYTVSVIPSIDGVLPLEQYETHISDETVLTCVPHVHYRDGYVQDIKAIAEISQRKGSLLFVDAYQSAGHIPIDVKEWGVDMLAAGTRKYLLGIPGVAFLYVRKELADALKPKASAWFGRESGFDGAYAKVARRFQTGTPAFISVYAAAAALSLLNHIGVSHIRDHVKTICADAVQYAAEKGLQLAAAQGGIQPGMVAIRDERASETAGLLKKKKVICAPRENVIRLAPHFYNTKEEMRHAIDEIAAKTIHK | not soluble
MSMTDLLNAEDIKKAVGAFSATDSFDHKKFFQMVGLKKKSADDVKKVFHMLDKDKSGFIEEDELGFILKGFSPDARDLSAKETKMLMAAGDKDGDGKIGVDEFSTLVAES | soluble
AQVSNGSNSGQMEEINTKEVAQRITTELKRYSIPQAIFAQRVLCRSQGTLSDLLRNPKPWSKLKSGRETFRRMWKWLQEPEFQRMSALRLAACKRKEQEHGKDRGNT | soluble
MLQGDITMRYNSLNSYLKEKFGCKIYKLALSGGLSCPNRDGTISTGGCIFCSNGGSGDFAADKMLSITEQIESAKNRVSAKIKNGKYIAYFQSFTNTYGDIDYLRSIFTEAINHPDIVALSIGTRPDCLPDEVLNLLGELNKIKPVWVELGLQTIHENTAKYINRGYTLDVFNTAVNNLNKINVDVIVHLIIGLPFESKEDILESVKYVSSMNISGIKLQLLHVLKNTPLEKEYSLNKFEVLSMEEYVNIIAECLRYIPKSIVIHRLTGDGPKSILVAPLWSGNKKAVLNYMNKRFNELNVIQGSLCS | not soluble
MISRTQRLLSLSTAMLLATTAAAVAEPSEELIAAAKKEGTLTTIALPHNWCGYGDVIAGFKAKYGIEVNELNPDAGSGDEIEAIKANKGNTGPQAPDVIDVGLSFGPSAKAEGLIQPYKVSTWDTIPDTAKDPEGYWYGDYYGVLSFVVNTDIVKDVPKDWADLKKSDYANSVALAGDPRASNQAVQAVYAAGLAAGETDAAKAGEAGLAFFAEVNKAGNFVPVIGKSASLAQGSTPIIIAWDYNGLSWRDSLNGNPPVEVVVPASGVVAGVYVQAISAFAPHPNAAKLWMEYLYSDEGQLGWLKGYCHPIRFNDLVKNGKVPKEMLDKLPPAESYEKAVFPTLDEQAKGKEAITTKWDSVVGASVQ | not soluble
MAGDPMLKQLKKVIITTAIALATLCSTQAFAETNPYLLMQKTADKLFTNIKNNQTKIKANPEYLRDIVREDLMSYVHIRYAGQLVLGKSLSSVSEPQREKFFNAFGKFIEQAYAQILTQYEDQQIQIENEKPLGDKSIVSIRVNVLSSGSTPPIKLDFKWRKNSKTGEWQAYDMAAEGVSMVATKQNEWSNILRQQGIDALTNQVEKAAKQPITLNKLEHHHHHH | soluble
MTISFNTVPSNTLVPLFYAEMNNSAANTAVTSAPALLIGHASNDAAIEVNSLVLMPSADYARQICGAGSQLARMVEVYRQTDPFGELYVIAVPEARGAAATVRVTVAGEAEESGTLSLYVGRSRVQVPVVNGDDATAVATAIKEAVNGVITLPFTASSDAGVVTLTARHKGLYGNELPVCLNYYGSGGGEILPAGLRVVTEVGAAGSGAPDLTAAVAAMGDEAFDFIGLPFNDAASINMMMTEMNDSSGRWSYARQLYGHVYTAKLGTLSELVGAGDMHNQQHITLAGYEKETQSPVDELVASRLAREAVFIRNDPARPTQTGELVGMLPAPKGKRFIMTEQQTLLSHGVATAYVEGGTLQIQRSVTTYKKNAYGVADNSYLDSETLHTSAYVLRKLKSVITSKYGRHKLANDGTRFGPGQAIVTPAVIKGELLATYRQMERAGIVENYDLFKQYLIVERDADNPNRLNTLFPPDYVNQLRVFAVVNQFRLQYSEESA | not soluble
MSVPAGSVSCLANALLNLRSSTDYNADHGVKNSILNFSNSKDASRFDGSESWSSSVLDKNQFIVAGSDSVKHFVAISTQGRGDHDQWVTSYKLRYTLDNVNWVEYNNGEIINANKDRNSIVTINFNPPIKARSIAIHPQTYNNHISLRWELYALPVKSYSNPSVQVGEVSIGDRSLNSGTGSRTIVRHVKFPVEFLSVPIVSIGCKKVDAHTDNGQMRWEGKSENITTKGFDLTFITWGNNAVYDLTFDYVAVEFNN | soluble
MGSDKIHHHHHHLDNSTSTATIDPPLRLGLAMWSQNQWQQTVYGNSQAHRLARYAEIFNTVEGNTTFYATPSLQNVQNWYAATHDEFKFTFKLPKHITHELQLQHAGPALQQFFSIMEPLINRTGVWKIQLPASFGPQSLPQLAQFLTQVPQGLTYGVEVRNSAFFAKGEAEQALNRLLIDNNCNRIIMDTRPVFAAAPTTAAVIDAHQKKPKVPVHAIATAHNPVVRFIGHPQAEANIHFFQNWLKQLPLWIAQNKQPYLFIHTPDNHNAPQLAVDLYRLLQQQLAQSTSALTDINLLPQQQHTTTQMGFDL | not soluble
MVVIMLNYDDIKIIDEIYSEGYLFAQYGIYIKKKFKQKIFKIPVDIGLGCPHKKNGGCIFCPEMGRPISVKYCSAKIPLKEQIKKQMENQKKKGFKKFYIYFYPGTNTYAPAEKLKEIWDFSLSYKEVIGLSIGTRPDCLEKEKLDILAEYVENGYDIWIDLGVQSMHQKTLEILNRGHDVSDIIKAIKDCHKRGIKVCGHVILGLPGESWKEMMETAKILSLLEIEAVKIYPLVVVKGTKLEEMYW | not soluble
MGSDKIHHHHHHMNRIGIIGAMQIEIDLLLEKLAIQEKQTIAGMPFYVGEFMGMEVIVTRCGVGKVNAAACTQTLIHKFDVDAIINTGVAGGLHPDVKVGDVVISTNVTHHDVSKTQMKNLFPFQEEFHASKKLMELARTACNSSSLHIGVHEGRIVSGECFVEDSKLKAKLIDEYAAHCTEMEGAAIGHVAYINEVPFLVIRCISDSADDEAQISYDDFAKTAANYCSEIIVEMLKNISSKTYSSKGGNEMLQAFIFDMDGTLFQTDKILELSLDDTFDHLRSLQLWDTVTPIEKYREIMGVPLPKVWETLLPNHSIEVREQTDAYFLERLIENIKSGKGALYPNVKEIFTYIKENNCSIYIASNGLTEYLRAIVSYYALDQWVTETFSIEQINSLNKSDLVKSILNKYDIKEAAIVGDRLSDINAAKDNGLFAIGCNFDFAQEDELVQADIVIDDLMELKGILPAVQR | not soluble
MGSDKIHHHHHHMKSNGHATRLRTTPSLGGQSHDTRARMIEAAIEVFGSVGYDGATTRQLAERAGVNQAAIPYHFGGKRELYVAAAQAIADYMRSRIEPLIDELRTASVDPVGHIDAVVMRFFQFIAGDEEPEAWTVFFVRCERDADDAFRIIYYQSVARFQAALIAEVAAATGRSPDDEDLKVRVAVVLGAISNFRTLRNVMLSSLGWDTFDAERKLTVETAVRRLALAELLGIHADAPSDVHPPLGSASGAQPSPTARP | not soluble
MVCIAAKCGNECSQCKHCHYALEQMSALAQGEKTSGLCPKLETCVFNCLTEDVSKVLSCVATRCNVHCYDGDCPSCKMISRRIFSNICKQHSMTTQPQIKYEGTCPNLFMELADDYVAMKKKKL | not soluble
MRAIVLLSVLISCYLVIAEDYYELLGVERDADDRTIRKAFKKLAIKKHPDRNTDDPNAHDEFVKINKAYEVLKDENLRKKYDQFGEKGLEDGFQGGNNYQSWQFYNDNFGIYDDDQEIVTLNRADFQRMVSDSNEIWFINFYSTYCSHCHQLAPTWRKFAREIEGTIRVGAVNCAEDPQLCQSQRVNAYPSLVFYPTGEFYQGHRDVELMVDFAIQRLKSEVLHLNSENWKALSEDWEPYNRLPWVVDMCGGDHIDCLSSTTRRKLSSMLDGLANVATIDCNAEEALCSKFNPITSGVMWFPARKLVKKSQINIESMDAQEISKSVIQYLDELEDISVESLQRLLEGNDPDEPIAVWMLANDAQSTERKDFRRLPALVTTQIFKFDCSKSSEICDELLDKTKLPQFMVFKTTGGYEIDYAGSKDFHAASTFIREASKSHIHVLNRDSYEYAISGGEFYIIDYFAPWCPPCMKLLGEYRRFHTATSEDSMLHTVAIGSLDCVKYKDLCQQAGVQSYPTSIVYTPDGKTHKMVGYHNVDYILEFLDNSLNPSVMEMSPEQFEELVMNRKDEETWLVDFFAPWCGPCQQLAPELQKAARQIAAFDENAHVASIDCQKYAQFCTNTQINSYPTVRMYPAKKTKQPRRSPFYDYPNHMWRNSDSIQRWVYNFLPTEVVSLGNDFHTTVLDSSEPWIVDFFAPWCGHCIQFAPIYDQIAKELAGKVNFAKIDCDQWPGVCQGAQVRAYPTIRLYTGKTGWSRQGDQGIGIGTQHKEQFIQIVRQQLKLDEHDEL | not soluble
MGSDKIHHHHHHMNYEDFKEVIHGRRSVRKFTEQEVATSDIKDIIDCARYAPSDTNSQTWEFLVIMNREKIKEIEQMTWDALHKLAAKAAKNGEEKAGKLLTRSFGPYATAFSEAPVLIVCLATPYESKFREKIFDPIAFVPDSVWEEEGIKSSCLAAQNLMLAAHAKGLGTCPMTGPVLLAQDELRQYLQIEPEKQINMVISLGFPKDKPKKLPRKEVDEITTFVF | not soluble
GPVDMTERLKVMTIFGTRPEAIKMAPLVLELQKHPEKIESIVTVTAQHRQMLDQVLSIFGITPDFDLNIMKDRQTLIDITTRGLEGLDKVMKEAKPDIVLVHGDTTTTFIASLAAFYNQIPVGHVEAGLRTWDKYSPYPEEMNRQLTGVMADLHFSPTAKSATNLQKENKDESRIFITGNTAIDALKTTVKETYSHPVLEKLGNNRLVLMTAHRRENLGEPMRNMFRAIKRLVDKHEDVQVVYPVHMNPVVRETANDILGDYGRIHLIEPLDVIDFHNVAARSYLMLTDSGGVQEEAPSLGVPVLVLRDTTERPEGIEAGTLKLAGTDEETIFSLADELLSDKEAHDKMSKASNPYGDGRASERIVEAILKHFNK | soluble
MGSDKIHHHHHHMDRFLSIEAFVRVAEASSFAEAARQLGVTSSVVTNRIQQLEKFVNAPLFHRSTRHVRLSEVGETFYRECAEVVGRVNELTDQMRELRATPTGRLRIQMLPGFALDHFGVPLAEFNRRYPGIQLDIIVNDRVVDPVEEGFDIAFQIFPPISESLIERRLFVVRRLFCASPAYLDAHGAPQHPRELLQHTTALYSGYPSRNRWTMTRGDEVVEMELPGMIRSNSVHLLREYALTGGGVVCLPTLVASEALVAGRLVPILTDFEIAPLSFAAVYPATQRQALKVKALVEFLAEYIGDESPWDRPLLERGWVR | not soluble
MGSDKIHHHHHHMWQFPLFETILIEQGQAKNISYHQQRYEKSLLKFYPKMKLQPFDLAKIIAKHTALFTHREGLIRCRIDYNHHDYVLQCFPYQQKVYRTFKPVFCDHIDYSLKFSDRTLLNNLLKQKEECDEIMIIRQGKVTDCSIGNLIFRQNNQWITPDKPLLEGTQRAKLLEQKKIIAREIFFEDLAQYEEIRLINAMNGL | not soluble
MKYKIIVIDVFNTLLNNKYELTEENRNALLYIQKELGIRVVLTSGRTVAALKPLAEELNLREYSGYLIPYHGGQIVNCRSGKVIASHRMATSFVEVLDARARAEGVTLLAFGKDSIFSTDPHDPLAVKESDICGQPLVSKHPRSSEVIKCSFVGEAEKIAELEVVMRRDYGDKLNIFRSSETLLECLPSE | not soluble
STSGANSSGSYLPSEIRSSKIDDNYLKELNEDLKLRKQELLEMLKPLEDKNNLLFQRLMSNLEEKQRSLQIMRQIMAGKGCEESSVMELLKEAEEMKQNLERKNKMLRKEMEMLWNKTFEAEELSDQQKAPQTKNKADLQDGKEKQQRKMEWVKYQEQNNILQNDFHGKVIELRIEALKNYQKANDLKLSLYLQQNFEPMQAFLNLPGSQGIRIV | soluble
MALGPLVTGLYDVQAFKFGDFVLKSGLSSPIYIDLRGIVSRPRLLSQVADILFQTAQNAGISFDTVCGVPYTALPLATVICSTNQIPMLIRRKETKDYGTKRLVEGTINPGETCLIIEDVVTSGSSVLETVEVLQKEGLKVTDAIVLLDREQGGKDKLQAHGIRLHSVCTLSKMLEILEQQKKVDAETVGRVKRFIQEAHHHHHH | soluble

From the DeepSol protein solubility set
